From the DeepSol protein solubility set

test: soluble on expression in E. coli; label from the status in PepcDB or PDB records

Soluble on expression in E. coli, soluble:
METRRIRKVLVANRGEIAIRVFRACTELGIRTVAIYSKEDVGSYHRYKADEAYLVGEGKKPIEAYLDIEGIIEIAKAHDVDAIHPGYGFLSENIQFAKRCREEGIIFIGPNENHLDMFGDKVKARHAAVNAGIPVIPGSDGPVDGLEDVVAFAEAHGYPIIIKAALGGGGRGMRIVRSKSEVKEAFERAKSEAKAAFGSDEVYVEKLIENPKHIEVQILGDYEGNIVHLYERDCSVQRRHQKVVEVAPSVSLSDELRQRICEAAVQLMRSVGYVNAGTVEFLVSGDEFYFIEVNPRIQVEHTITEMITGIDIVQSQILIADGCSLHSHEVGIPKQEDIRINGYAIQSRVTTEDPLNNFMPDTGKIMAYRSGGGFGVRLDAGNGFQGAVITPYYDSLLVKLSTWALTFEQAARKMLRNLREFRIRGIKTNIPFLENVVQHPKFLSGEYDTSFIDTTPELFVF
METYTVKLGSDKGLLVFEPAKLTIKPGDTVEFLNNKVPPHNVVFDAALNPAKSADLAKSLSHKQLLMSPGQSTSTTFPADAPAGEYTFYCEPHRGAGMVGKITVAG
MEVKEMFSLGGGLGRSKVDESKVWDVIIIGAGPAGYTAAIYAARFGLDTIIITKDLGGNMAITDLIENYPGFPEGISGSELSKKMYDQVKKYGVEVIIDEVIRIDPAECAYYEGPCNFVVKTANGKEYKAKTIIIAVGAEPRKLNVPGEKEFTGRGVSYCATCDGPLFVGKEVIVVGGGNTALQEALYLHSIGVKVTLVHRRDKFRADKILQDRFKQAGIPAILNTVVTEIKGTNKVESVVLKNVKTGETVEKKVDGVFIFIGYEPKTDFVKHLGITDEYGYIPVDMYMRTKVPGIFAAGDITNVFKQIAVAVGQGAIAANSAKEFIESWNGKTIE
MEVVEAAAAQLETLKFNGTDFGVGEGPAAPSPGSAPVPGTQPPLQSFEGSPDAGQTVEVKPAGEQPLQPVLNAVAAGTPAPQPQPPAESPACGDCVTSPGAAEPARAPDSLETSDSDSDSDSETDSDSSSSSSSSSSSSSSSSSSCISLPPVLSDGDDDLQVEKENKNFPLKTKDELLLNELPSVEELTIILPEDIELKPLGMVSSIIEQLVIIESMTNLPPVNEETVIFKSDRQAAGKIFEIFGPVAHPFYVLRFNSSDHIESKGIKIKETMYFAPSMKDFTQYIFTEKLKQDKGSDASWKNDQEPPPEALDFSDDEKEKEAKQRKKSQIQGRKKLKSEFNEPGEDFTEVHQNWNAHSSASEHAKGYRNREFTRGFSRARYPRSCHGRPPPQHFYNSEHMVSQETSGFPSQRQNNPIMPQYPFPLPVFDMHNFPLRPPPPPPPPPVNMGWATPNMAAHPLLNLPYSLPPPPPPPPLPPPPSSGDSNSHFGPYY
MEYKSSPKRPYYLRGFYDWLVDNSFTPYLVVDATYLGVNVPVEYVKDGQIVLNLSASATGNLQLTNDFIQFNQRFKGVSRELYIPMGAALAIYARENGDGMMFEPEEIYDELNIEPDTEQPTGFYEAVD
MFAIQPGLAEGGQFLGDPPPGLCQPELQPDSNSNFMASAKDANENWHGMPGRVEPILRRSSSESPSDNQAFQAPGSPEEGVRSPPEGAEIPGAEPEKMGGAGTVCSPLEDNGYASSSLSIDSRSSSPEPACGTPRGPGPPDPLLPSVAQAVQHLQVQERYKEQEKEKHHVHLVMYRRLALLQWIRGLQHQLIDQQARLQESFDTILDNRKELIRCLQQRAAPSRPQDQA
MFCTFFEKHHRKWDILLEKSTGVMEAMKVTSEEKEQLSTAIDRMNEGLDAFIQLYNESEIDEPLIQLDDDTAELMKQARDMYGQEKLNEKLNTIIKQILSISVSEEGEKE
MFCVRCGSSDSELYEGLCRDCFLEDYSILRIPDRIEVRVCSHCRAKFISGQWLDEGLPDEEIVYRALEDSISWDEPVENPEIELEIMQERGTIYRCLVEVDAEVLGKRLSQEYEVEVRITNTVCPTCSKQSSGYYEAVIQLRADGRELAETEIETADRVVQRTLLKLSRRDKLAYLPQRVEVKEGVDYYIGSHKSARKVVDAIREKLGGITMESPRLMGQDKSTGKGLYRTWISLRLANFRVGDFLSHHNRILAVIDLRKKGVSVRDLETREVKNILWGEYEDMDVVGRADDVKTTTVTSRSPGMIQILHPETFEPVDLEADSYTSTLDIGEQVPVIEIDKRLYIIEDEAEELEHHHHHH
MFFSHETILLICYNMLTLSKKISRIASEMIMKTKLIVVAGPTAVGKTALGIELAERFNGEIISGDSQQVYRQLNIGTAKATPEEQAAAVHHLIDVRDVDESYSAYDFVTEAQAAITDIVSRGKLPIIVGGTGLYLQSLLEGYHLGGKVDQNQVLAYRSELEQLSDQQLFEKIDSLGIEIKEINRRRAIRALELYRFSDNLENTETCYEPFIIGLDDERSLIYDRINTRVDKMVELGLLEEAKWLYDNFPEAQSARGIGYKELFPYFSGEQTLDEALEKLKQNTRRFAKRQLTWFRNRMTVSFYQISSPEYPENVIQDLAIFLNEEEGEKLEHHHHHH

Soluble on expression in E. coli, not soluble:
METYDLVIIGGGINGAGIARDAAGRGLSVLLCEKDDLASHTSSASTKLIHGGLRYLEYYEFGLVRKALQEREVLLKAAPHIIWPLRFVMPHARDQRPEWMIRAGLFLYDHLAKREVLPGSETVSFARHPSGAPLKDAFKRGFVYSDGWVQDARLVVLNAMDAAEHGAKIHVRTACVAARRDGEHWLATLEREDGSRFEVRARALVNAAGPWVQSLIEDKLAMPSSKSIRLVKGSHIVVKKIFDHPFAYIFQNPDKRIIFAIPYEKDFTLIGTTDVEYHGDPAQVAIDGDEINYLCEMSNRYFHSQITPADVLSTYSGVRPLLDDASDNASSVTRDYALEMDLKGAPLLSVFGGKITTFRKLAEEAVDKIAPLLGCGQATWTAGAPLPGGDMPGADFGRFLQGLRQRHPWLPEALAERWARAYGTRVGKLIGKADSLAGLGKEVLPGLYEAELAYLADAEWATRSEDILWRRSKLKLHLPANAAEVVDAWLAARAQPPREALSALEHHHHHH
MEVCSTVTTKKLSSLAKLILFTIQKVSDASRHKLLTTLDPHLLAKRGKILRKSLNEAVSTSHSRITCRPSDHQDVRSSFISPVPLQLEYEFSCSSTPPRRSYATTVSKGRRSNGSHNRPLINKRQRQAYIRYNTLPKVRDSIWDRHVAAAVFPDVASSTGTMESCHVDRAAEEFIQSFYRQLRLQKWMMAQEV
MEVVRIPEFKEKTAPGAYYQQPAIDGSRPGRFYANLFDIKATPKYGMRTLAYHEGIPGHHFQVAVAMELEGQPLIRKMAPFTAYIEGWALYSERVAWELGFQQDPFDNIGRLQAELFRAVRLVVDTGIHHSRWTREQAIDYMKKNTGMSDRDVTAEIERYIVMPGQATAYKVGMMKILELREKAKQALGDKFDLRDFHDVVLKNGAVPLDILEKLVDRYIADKRSQA
MEYGAICTPFIFVVYAKSKYLCVLISNEMGKNKLEKFADMASYPHVFEYPYSAVDNVPFDMKGKWHQEFFGNDHPIVLELGCGRGEYTVGLGRMFPDKNFIAVDIKGSRMWTGATESLQAGMKNVAFLRTNIEIIERFFAAGEVSEIWLTFSDPQMKKATKRLTSTYFMERYRKFLKPDGIIHLKTDSNFMFTYTKYMIEANQLPVEFITEDLYHSDLVDDILSIKTYYEQQWLDRGLNIKYIKFRLPQEGVLQEPDVEIELDPYRSYNRSKRSGLQTSK
MEYHLRTKLNGNIAMTSCFHENSFLQCDRSLYKFIWVRHGALDVEVDHVVMHLEKEEMISLTPLHHVQIRGVDGEYLTFLFNSNFYCIYGHDSEVSCNGFLFNGSSRVMRLKLSPSQSARLDSIVDIFRGECGIQDNLQEEMLRIILKRFIITCTRIAREKFDVDPGRENMFDVIRQFYVLVDSHFKEKKQVQDYADMLCRSPKTISNLFSLYGLSSPLRVIHERVDAEAKRLLLYTGKSAKEISEILGFEDLATFSRFFKKMNKESLSEYRKREKRE
MEYLFLRRKKTSSTSVRQKTLLYRAAGREWTARFSSLSDVRPADSLIYKGILYQLEIRRAFLDSSLSLKKLSMMLETNQTYLSNAVNRYFGCHLKELLNRYRVEYAKELLRNGGCPLGEVPSRSGFGSKSPFYLAFVRQTGMTPKRYAARERNLVNLEIENEVLL
MEYRSLTLDDFLSRFQLLRPQINRETLNHRQAAVLIPIVRRPQPGLLLTQRSIHLRKHAGQVAFPGGAVDDTDASAIAAALREAEEEVAIPPSAVEVIGVLPPVDSVTGYQVTPVVGIIPPDLPYRASEDEVSAVFEMPLAQALHLGRYHPLDIYRRGDSHRVWLSWYEQYFVWGMTAGIIRELALQIGVKPMGHHHHHHSH
MFELDLRSRQPIYEQLIDKMKEMIVRELWQPHDQLPSVRTMAKQLMINPNTIQKAYRELERDGWIYSIPGKGSFVAPRSKEPNIEAIAAVREQFVRLVKEARFLGVTNEQLWQWIREGEERGGES
MFFCTILSFFDFGRYFMEKNQYEIYHENKKHTPNDFPYNTYLCSIPLDFKSVNLHWHNEVELIVIKKGQGLVNVNLVTYTVNAGDVVFVFPGQLHSISQKDYSIMEYENILFKSSLLKSSGYDLCNDKFIQPLLSGNLNIYPVINSNFDFHDSLYSLINEIDKLCDKRPYAYQLAVKSYLFQIFYLLISNCGLNQIKPISKKALEK
MFIAGYIEKPERGKDIILTEKGRISNEKFFPTLEEKRLIDQYWKNKSELRKARKKANSIIDDSTSTKAVEIDENSGDSDWKTELIDQLKKFSPGKFESFSRLLISKMGVRIDNQRGIIRSGDHSIDGFGYFQSDEFRTSRVAIQAKRFTNGSVGEPEIDKFKGVMDSFNAEYGIFITTSYFTDQAKEKAVVGNNSVTLIDGIKLASLVQKYQLRV
MFILHRSMLPCGANQMDLIQENGQPRYGRFSQLPTAIGLDRYIYKSPYGKIEKGWRKKLKYKKFKFCSIQHQHYSIGLAIADIGWAGHGFFYVYDHAKHQVQEWNAIHAFARKTCVDEQPLFNQSYFYKSPFELDIQHANGVRYLRVTKYGEILLSARIFCAGTEPLSLCSPNGINGWTYTQKKTTLGVEGYFTTKQGEMIEFNETSLASLDDTCGFLRPETAWFWLSSSFWTDHGDRIGINLASGVNESFGNENCIWINGVLHSIADVLFERQDKNHWVIRSLDHKLELHVETGWRRYESINLRMVGSQFSQWQAKLTGKILLDENKTVVLNQEYALLEQHYAKW
MFKKFTREDVHSRSKVKSSIQRTLKAKLVKQYPKIEDVIDELIPKKSQIELIKCEDKIQLYSVDGEVLFFQKFDELIPSLKLVHKFPEAYPTVQVDRGAIKFVLSGANIMCPGLTSAGADLPPAPGYEKGTIVVINAENKENALAIGELMMGTEEIKSVNKGHSIELIHHLGDPLWNFSVE
MFKYSKDGVSVLTILDTRRAKINGLFPVKVQVVFRRKQKYYSTGKELSKEDWDRLLKAKSQLLMEVRTDIESSFSIIKQQVSELIQKGEFSFEILSIRLGRHTKEINLRTAFELKMKELEDNEQASTYLNYRSALKSLECFGGTNIPLDRITVEWLKHCERFWISNGKSYSSVSIYFRTLKCILNRAVRDGILKESSFPFGKNKYEIPEGHGRKLALTLPEIKRVMSFQDSTNELEEFRDLWFFSYLCNGINFMDLLFLQYSNIVDGEICFIRSKTSRTTKHSKEIRATITPEMWDIIHKWGNPNISPQTYIFKYAKGNEDAFEKIKLVRRIVTKCNRKLKKIAQGTGIAQLTTYTARHSFATVLKRGGAKTSYISESLGHSNLTVTENYLACFEKEERIRNARLLTNFDNKM
